Measured values from the Human Domainome abundance scans (Beltran et al. 2025).
± gives the uncertainty stated by the source.

Assay: abundance fitness (aPCA) (normalised: wild type 0, dead -1); higher = more abundant; growth selection in yeast, the domain comes from the species named
Conditions: Saccharomyces cerevisiae (strain ATCC 204508 / S288c)

Substance	abundance fitness
E3 ubiquitin-protein ligase RSP5 G325Y, P39940	-0.057 ± 0.083
E3 ubiquitin-protein ligase RSP5 G329A, P39940	0.037 ± 0.044
E3 ubiquitin-protein ligase RSP5 G329C, P39940	0.077 ± 0.082
E3 ubiquitin-protein ligase RSP5 G329D, P39940	0.149 ± 0.066
E3 ubiquitin-protein ligase RSP5 G329E, P39940	0.096 ± 0.055
E3 ubiquitin-protein ligase RSP5 G329F, P39940	-0.026 ± 0.091
E3 ubiquitin-protein ligase RSP5 G329H, P39940	-0.046 ± 0.083
E3 ubiquitin-protein ligase RSP5 G329L, P39940	-0.129 ± 0.047
E3 ubiquitin-protein ligase RSP5 G329M, P39940	0.061 ± 0.098
E3 ubiquitin-protein ligase RSP5 G329N, P39940	0.1 ± 0.069
E3 ubiquitin-protein ligase RSP5 G329P, P39940	-0.113 ± 0.052
E3 ubiquitin-protein ligase RSP5 G329Q, P39940	0.18 ± 0.096
E3 ubiquitin-protein ligase RSP5 G329R, P39940	-0.021 ± 0.043
E3 ubiquitin-protein ligase RSP5 G329S, P39940	0.103 ± 0.054
E3 ubiquitin-protein ligase RSP5 G329T, P39940	0.063 ± 0.071
E3 ubiquitin-protein ligase RSP5 G329V, P39940	-0.006 ± 0.042
E3 ubiquitin-protein ligase RSP5 G329W, P39940	-0.139 ± 0.058
E3 ubiquitin-protein ligase RSP5 G329Y, P39940	-0.337 ± 0.39
E3 ubiquitin-protein ligase RSP5 G331A, P39940	-0.034 ± 0.042
E3 ubiquitin-protein ligase RSP5 G331C, P39940	-0.095 ± 0.09
E3 ubiquitin-protein ligase RSP5 G331D, P39940	0.059 ± 0.087
E3 ubiquitin-protein ligase RSP5 G331E, P39940	-0.127 ± 0.049
E3 ubiquitin-protein ligase RSP5 G331F, P39940	-0.126 ± 0.084
E3 ubiquitin-protein ligase RSP5 G331H, P39940	-0.009 ± 0.15
E3 ubiquitin-protein ligase RSP5 G331I, P39940	-0.071 ± 0.068
E3 ubiquitin-protein ligase RSP5 G331K, P39940	-0.121 ± 0.046

Substance	abundance fitness
E3 ubiquitin-protein ligase RSP5 G331L, P39940	-0.095 ± 0.046
E3 ubiquitin-protein ligase RSP5 G331M, P39940	-0.02 ± 0.055
E3 ubiquitin-protein ligase RSP5 G331N, P39940	-0.01 ± 0.1
E3 ubiquitin-protein ligase RSP5 G331P, P39940	-0.249 ± 0.07
E3 ubiquitin-protein ligase RSP5 G331R, P39940	-0.17 ± 0.041
E3 ubiquitin-protein ligase RSP5 G331S, P39940	-0.186 ± 0.046
E3 ubiquitin-protein ligase RSP5 G331T, P39940	-0.09 ± 0.046
E3 ubiquitin-protein ligase RSP5 G331V, P39940	-0.083 ± 0.047
E3 ubiquitin-protein ligase RSP5 G331W, P39940	-0.329 ± 0.049
E3 ubiquitin-protein ligase RSP5 G331Y, P39940	-0.202 ± 0.17
E3 ubiquitin-protein ligase RSP5 G336A, P39940	-0.447 ± 0.05
E3 ubiquitin-protein ligase RSP5 G336C, P39940	-0.427 ± 0.063
E3 ubiquitin-protein ligase RSP5 G336D, P39940	-0.368 ± 0.07
E3 ubiquitin-protein ligase RSP5 G336E, P39940	-0.562 ± 0.059
E3 ubiquitin-protein ligase RSP5 G336F, P39940	-0.544 ± 0.067
E3 ubiquitin-protein ligase RSP5 G336H, P39940	-0.157 ± 0.2
E3 ubiquitin-protein ligase RSP5 G336I, P39940	-1.3 ± 0.13
E3 ubiquitin-protein ligase RSP5 G336K, P39940	-0.302 ± 0.062
E3 ubiquitin-protein ligase RSP5 G336L, P39940	-0.575 ± 0.062
E3 ubiquitin-protein ligase RSP5 G336M, P39940	-0.531 ± 0.1
E3 ubiquitin-protein ligase RSP5 G336P, P39940	-0.755 ± 0.057
E3 ubiquitin-protein ligase RSP5 G336Q, P39940	-0.271 ± 0.079
E3 ubiquitin-protein ligase RSP5 G336S, P39940	-0.471 ± 0.061
E3 ubiquitin-protein ligase RSP5 G336T, P39940	-0.461 ± 0.072
E3 ubiquitin-protein ligase RSP5 G336V, P39940	-1.11 ± 0.061
E3 ubiquitin-protein ligase RSP5 G336W, P39940	-0.558 ± 0.054
